Paper PMC9927474

Test system: T1, GST-NolA (Bradyrhizobium guangxiense CCBAU53363), ORF:43be7f56
T1 sequence: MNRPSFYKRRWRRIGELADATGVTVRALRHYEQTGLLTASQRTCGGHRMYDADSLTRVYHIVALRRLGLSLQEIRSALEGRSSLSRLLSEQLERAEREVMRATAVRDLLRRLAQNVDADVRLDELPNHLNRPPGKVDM
Experiment: EMSA
Conditions: EMSA: 10 uL, 1x binding buffer (composition, salt and pH not stated), 1 mg/mL BSA, 1 mg/mL salmon sperm DNA, 25 C, 30 min; 6% native PAGE in TB buffer (44.5 mM …)

With “TGTGAACCATAGGAGAGTGCTCATCATGTACGGTCGAATCAACAATTTTTCCGAGAACGAAACTTATTATCGGCAAGATGCGGAGCATTCGAATTGCGAAAGCCAAGACTTCGCGGACGCGTTCGCTAGAATGCAGTTGCAAGATTCGGCCGGCAG (double strand) [nopP promoter probe]” the binding was “no binding”.
